Assays:
recombinant CD3 proteins [1] = target: T1, recombinant CD3 proteins (UniProt P07766 23-126); experiment: Octet BLI, recombinant CD3; Full R^2 0.9897
T1 construct: elsewhere it uses human CD3 E/D and E/G heterodimers

recombinant CD3 proteins [2] = target: T1, recombinant CD3 proteins; experiment: Octet BLI, recombinant CD3; Full R^2 0.9968
recombinant CD3 proteins [3] = target: T1, recombinant CD3 proteins; experiment: Octet BLI, recombinant CD3; Full R^2 0.5677
recombinant CD3 proteins [4] = target: T1, recombinant CD3 proteins; experiment: Octet BLI, recombinant CD3; Full R^2 0.9872
recombinant CD3 proteins [5] = target: T1, recombinant CD3 proteins; experiment: Octet BLI, recombinant CD3; Full R^2 0.9599
recombinant CD3 proteins [6] = target: T1, recombinant CD3 proteins; experiment: Octet BLI, recombinant CD3; Full R^2 0.998
recombinant CD3 proteins [7] = target: T1, recombinant CD3 proteins; experiment: Octet BLI, recombinant CD3; Full R^2 0.8423
recombinant CD3 proteins [8] = target: T1, recombinant CD3 proteins; experiment: Octet BLI, recombinant CD3; Full R^2 0.9986
recombinant CD3 proteins [9] = target: T1, recombinant CD3 proteins; experiment: Octet BLI, recombinant CD3; Full R^2 0.9829
recombinant CD3 proteins [10] = target: T1, recombinant CD3 proteins; experiment: Octet BLI, recombinant CD3; Full R^2 0.9688

T1 sequence (P07766 23-126): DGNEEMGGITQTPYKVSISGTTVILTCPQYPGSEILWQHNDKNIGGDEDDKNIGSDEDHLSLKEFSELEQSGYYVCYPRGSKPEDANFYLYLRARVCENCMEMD

B1: CD3 × CD33-BspAb84 (bispecific antibody)
chain 1: EVQVAESGGGLVKPGGSLRLSCAASGFTFSRYSMNWVRQAPGKCLEWVSSISSSGSYTYYADSVKGRFTISRDNAKNSLYLQMNSLRAEDTAVYYCVRERGKGAGMDVWGQGTTVTVSSGGGGSGGGGSGGGGSGGGGSNFMLTQPHSVSESPGKTVTISCTRSSGSIASNYVQWYQQRPGSSPTTVIYEDNQRPSGVPDRFSGSIDSSSNSASLTISGLKTEDEADYYCQSYDSSNRVFGCGTKLTVLDKTHTCPPCPAPEFEGGPSVFLFPPKPKDTLMISRTPEVTCVVVDVSHEDPEVKFNWYVDGVEVHNAKTKPREEQYNSTYRVVSVLTVLHQDWLNGKEYKCKVSNKALPASIEKTISKAKGQPREPQVYTLPPCREEMTKNQVSLWCLVKGFYPSDIAVEWESNGQPENNYKTTPPVLDSDGSFFLYSKLTVDKSRWQQGNVFSCSVMHEALHNHYTQKSLSLSPGK
chain 2: EVQLVQSGAEVKKPGSSVKVSCKASGYTITDSNIHWVRQAPGQSLEWIGYIYPYNGGTDYNQKFKNRATLTVDNPTNTAYMELSSLRSEDTAFYYCVNGNPWLAYWGQGTLVTVSSASTKGPSVFPLAPSSKSTSGGTAALGCLVKDYFPEPVTVSWNSGALTSGVHTFPAVLQSSGLYSLSSVVTVPSSSLGTQTYICNVNHKPSNTKVDKRVEPKSCDKTHTCPPCPAPEFEGGPSVFLFPPKPKDTLMISRTPEVTCVVVDVSHEDPEVKFNWYVDGVEVHNAKTKPREEQYNSTYRVVSVLTVLHQDWLNGKEYKCKVSNKALPASIEKTISKAKGQPREPQVCTLPPSREEMTKNQVSLSCAVKGFYPSDIAVEWESNGQPENNYKTTPPVLDSDGSFFLVSKLTVDKSRWQQGNVFSCSVMHEALHNRFTQKSLSLSPGK
chain 3: DIQLTQSPSTLSASVGDRVTITCRASESLDNYGIRFLTWFQQKPGKAPKLLMYAASNQGSGVPSRFSGSGSGTEFTLTISSLQPDDFATYYCQQTKEVPWSFGQGTKVEVKRTVAAPSVFIFPPSDEQLKSGTASVVCLLNNFYPREAKVQWKVDNALQSGNSQESVTEQDSKDSTYSLSSTLTLSKADYEKHKVYACEVTHQGLSSPVTKSFNRGEC
- Kd (recombinant CD3 proteins [1]): 24.6 nM
- koff (recombinant CD3 proteins [1]): 0.00671 s⁻¹
- kon (recombinant CD3 proteins [1]): 273000 M⁻¹ s⁻¹

B2: CD3 × CD33-BspAb90 (bispecific antibody)
chain 1: not shown
chain 2: B1 chain 2
chain 3: B1 chain 3
- Kd (recombinant CD3 proteins [2]): 334 nM
- koff (recombinant CD3 proteins [2]): 0.00459 s⁻¹
- kon (recombinant CD3 proteins [2]): 13800 M⁻¹ s⁻¹

B3: CD3 × CD33-BspAb87 (bispecific antibody)
chain 1: EVQLVESGGGLVKPGGSLRLSCAASGFTVSNYSMNWVRQAPGKCLEWVSSISRSSSYIYYADSVKGRFTISRDNAKNSLFLQMNSLRAEDTAVYYCARERWELLYFDYWGQGTLVTVSSGGGGSGGGGSGGGGSGGGGSQTVVTQEPSFSVSPGGTVTLTCGLSSGSVSTSYYPSWYQQTPGQAPRTLIYSTNTRSSGVPDRFSGSILGNKAALTITGAQADDESDYYCVLYMGSGIWVFGCGTKLTVLDKTHTCPPCPAPEFEGGPSVFLFPPKPKDTLMISRTPEVTCVVVDVSHEDPEVKFNWYVDGVEVHNAKTKPREEQYNSTYRVVSVLTVLHQDWLNGKEYKCKVSNKALPASIEKTISKAKGQPREPQVYTLPPCREEMTKNQVSLWCLVKGFYPSDIAVEWESNGQPENNYKTTPPVLDSDGSFFLYSKLTVDKSRWQQGNVFSCSVMHEALHNHYTQKSLSLSPGK
chain 2: B1 chain 2
chain 3: B1 chain 3
- Kd (recombinant CD3 proteins [3]): 5.17 nM
- koff (recombinant CD3 proteins [3]): 0.00307 s⁻¹
- kon (recombinant CD3 proteins [3]): 594000 M⁻¹ s⁻¹

B4: CD3 × CD33-BspAb93 (bispecific antibody)
chain 1: NFMLTQPHSVSESPGKTVTISCTRSSGSIASKYVQWYQQRPGSSPTTVIYEDNQRPSGVPDRFSGSIDSSSNSASLTISGLKTEDEADYYCQSYYSNNRVFGCGTKLTVLGGGGSGGGGSGGGGSGGGGSEVQLVESGGGLVQPGGSLRLSCAASGFTFSRYSMNWVRQAPGKCLEWVSYISRSSTTIYYADSVKGRFTISRDNAKNSLYLQMNSLRDEDAAVYYCARERWELLYFDYWGQGTLVTVSSDKTHTCPPCPAPEFEGGPSVFLFPPKPKDTLMISRTPEVTCVVVDVSHEDPEVKFNWYVDGVEVHNAKTKPREEQYNSTYRVVSVLTVLHQDWLNGKEYKCKVSNKALPASIEKTISKAKGQPREPQVYTLPPCREEMTKNQVSLWCLVKGFYPSDIAVEWESNGQPENNYKTTPPVLDSDGSFFLYSKLTVDKSRWQQGNVFSCSVMHEALHNHYTQKSLSLSPGK
chain 2: B1 chain 2
chain 3: B1 chain 3
- Kd (recombinant CD3 proteins [4]): 14.8 nM
- koff (recombinant CD3 proteins [4]): 0.00516 s⁻¹
- kon (recombinant CD3 proteins [4]): 349000 M⁻¹ s⁻¹

B5: CD3 × CD33-BspAb86 (bispecific antibody)
chain 1: EVQLVESGGGLVKPGGSLRLSCAASGFTFSSYSMNWVRQAPGKCLEWVSSISRSGTYIYYADSVKGRFTISRDNAKNSLYLQMNSLRAEDTAVYYCARERWELLYFDYWGQGTLVTVSSGGGGSGGGGSGGGGSGGGGSQTVVTQEPSLTVSPGGTVTLTCASSTGAVTSGYYPNWFQQKPGQAPRALIYSTSNKHSWTPARFSGSLLGGKAALTLSGVQPEDEAEYYCLLYYGGAYVFGCGTKVTVLDKTHTCPPCPAPEFEGGPSVFLFPPKPKDTLMISRTPEVTCVVVDVSHEDPEVKFNWYVDGVEVHNAKTKPREEQYNSTYRVVSVLTVLHQDWLNGKEYKCKVSNKALPASIEKTISKAKGQPREPQVYTLPPCREEMTKNQVSLWCLVKGFYPSDIAVEWESNGQPENNYKTTPPVLDSDGSFFLYSKLTVDKSRWQQGNVFSCSVMHEALHNHYTQKSLSLSPGK
chain 2: B1 chain 2
chain 3: B1 chain 3
- Kd (recombinant CD3 proteins [5]): 54.2 nM
- koff (recombinant CD3 proteins [5]): 0.0149 s⁻¹
- kon (recombinant CD3 proteins [5]): 276000 M⁻¹ s⁻¹

B6: CD3 × CD33-BspAb91 (bispecific antibody)
chain 1: DIQMTQSPSTLSASVGDRVTITCRASQSISSWLAWFQQKTGKAPKLLIYKASSLESGVPSRFSGSGSGTEFTLTISSLQPDDFATYYCQQYISYSWTFGCGTKVEIKGGGGSGGGGSGGGGSGGGGSEVQLVESGGGLVQRGGSLRLSCAASGFTFSNYWMSWVRQAPGKCLEWVANIKEDGSEKYYVDSVKGRFTISRDNAKHSLYLQMNSLRAEDTAVYYCARERRTGYFDYWGQGTLVTVSSDKTHTCPPCPAPEFEGGPSVFLFPPKPKDTLMISRTPEVTCVVVDVSHEDPEVKFNWYVDGVEVHNAKTKPREEQYNSTYRVVSVLTVLHQDWLNGKEYKCKVSNKALPASIEKTISKAKGQPREPQVYTLPPCREEMTKNQVSLWCLVKGFYPSDIAVEWESNGQPENNYKTTPPVLDSDGSFFLYSKLTVDKSRWQQGNVFSCSVMHEALHNHYTQKSLSLSPGK
chain 2: B1 chain 2
chain 3: B1 chain 3
- Kd (recombinant CD3 proteins [6]): 63.8 nM
- koff (recombinant CD3 proteins [6]): 0.00203 s⁻¹
- kon (recombinant CD3 proteins [6]): 31900 M⁻¹ s⁻¹

B7: CD3 × CD33-BspAb89 (bispecific antibody)
chain 1: not shown
chain 2: B1 chain 2
chain 3: B1 chain 3
- Kd (recombinant CD3 proteins [7]): 24.4 nM
- koff (recombinant CD3 proteins [7]): 0.0578 s⁻¹
- kon (recombinant CD3 proteins [7]): 2.37e+06 M⁻¹ s⁻¹

B8: CD3 × CD33-BspAb92 (bispecific antibody)
chain 1: not shown
chain 2: B1 chain 2
chain 3: B1 chain 3
- Kd (recombinant CD3 proteins [8]): 43.8 nM
- koff (recombinant CD3 proteins [8]): 0.00051 s⁻¹
- kon (recombinant CD3 proteins [8]): 11600 M⁻¹ s⁻¹

B9: CD3 × CD33-BspAb85 (bispecific antibody)
chain 1: EVQLVESGGGLVKPGGSLRLSCAASGFTFSSYSMNWVRQAPGKCLEWVSSISRSSGYIFYADSVKGRFTISRDNAKNSLYLQMNSLRAEDTAVYYCVRERVGAGFDYWGQGTLVTVSSGGGGSGGGGSGGGGSGGGGSNFMLTQPHSVSESPGKTVAISCTRSSGSIASNYVQWYQQRPGSSPTAVIYEDNQRPSGVPDRFSGSIDSSSNSAFLTISGLKTEDEADYYCQSYDSSNRVFGCGTKLTVLDKTHTCPPCPAPEFEGGPSVFLFPPKPKDTLMISRTPEVTCVVVDVSHEDPEVKFNWYVDGVEVHNAKTKPREEQYNSTYRVVSVLTVLHQDWLNGKEYKCKVSNKALPASIEKTISKAKGQPREPQVYTLPPCREEMTKNQVSLWCLVKGFYPSDIAVEWESNGQPENNYKTTPPVLDSDGSFFLYSKLTVDKSRWQQGNVFSCSVMHEALHNHYTQKSLSLSPGK
chain 2: B1 chain 2
chain 3: B1 chain 3
- Kd (recombinant CD3 proteins [9]): 60.8 nM
- koff (recombinant CD3 proteins [9]): 0.0149 s⁻¹
- kon (recombinant CD3 proteins [9]): 246000 M⁻¹ s⁻¹

B10: CD3 × CD33-BspAb88 (bispecific antibody)
chain 1: QVQLVQSGAEVKKPGASLKVSCKASGYTFTSYYMHWVRQAPGQCLEWMGIINPSNGNTISAQKFQGRVTMTRDTSTSTVYMEMSSLRSEDTAVYYCVRSWGYYVMDVWGQGTTVTVSSGGGGSGGGGSGGGGSGGGGSQTVVTQEPSFSVSPGGTVTLTCGLNSGSVSTSYYPSWYQQTPGQTPRTLIYSTNTRSSGVPDRFSGSILGNKAALTITGAQADDESDYYCVLYMGSGIWVFGCGTKLTVLDKTHTCPPCPAPEFEGGPSVFLFPPKPKDTLMISRTPEVTCVVVDVSHEDPEVKFNWYVDGVEVHNAKTKPREEQYNSTYRVVSVLTVLHQDWLNGKEYKCKVSNKALPASIEKTISKAKGQPREPQVYTLPPCREEMTKNQVSLWCLVKGFYPSDIAVEWESNGQPENNYKTTPPVLDSDGSFFLYSKLTVDKSRWQQGNVFSCSVMHEALHNHYTQKSLSLSPGK
chain 2: B1 chain 2
chain 3: B1 chain 3
- Kd (recombinant CD3 proteins [10]): 12.6 nM
- koff (recombinant CD3 proteins [10]): 0.000778 s⁻¹
- kon (recombinant CD3 proteins [10]): 61800 M⁻¹ s⁻¹

Source: patent US20260167721A1 (ABLEXIS, published 2026)
